How the values were obtained:
[1] = biological target: T1, human NPR1 on HEK293/hNPR1.myc.DDK cells with 10 nM hANP (NPR1-ANP complex) (human, UniProt P01160 124-151); experiment: ECL cell binding (MSD), +10 nM hANP
T1 construct: also called NPR1-ANP Complex on the Cell Surface
T1 sequence: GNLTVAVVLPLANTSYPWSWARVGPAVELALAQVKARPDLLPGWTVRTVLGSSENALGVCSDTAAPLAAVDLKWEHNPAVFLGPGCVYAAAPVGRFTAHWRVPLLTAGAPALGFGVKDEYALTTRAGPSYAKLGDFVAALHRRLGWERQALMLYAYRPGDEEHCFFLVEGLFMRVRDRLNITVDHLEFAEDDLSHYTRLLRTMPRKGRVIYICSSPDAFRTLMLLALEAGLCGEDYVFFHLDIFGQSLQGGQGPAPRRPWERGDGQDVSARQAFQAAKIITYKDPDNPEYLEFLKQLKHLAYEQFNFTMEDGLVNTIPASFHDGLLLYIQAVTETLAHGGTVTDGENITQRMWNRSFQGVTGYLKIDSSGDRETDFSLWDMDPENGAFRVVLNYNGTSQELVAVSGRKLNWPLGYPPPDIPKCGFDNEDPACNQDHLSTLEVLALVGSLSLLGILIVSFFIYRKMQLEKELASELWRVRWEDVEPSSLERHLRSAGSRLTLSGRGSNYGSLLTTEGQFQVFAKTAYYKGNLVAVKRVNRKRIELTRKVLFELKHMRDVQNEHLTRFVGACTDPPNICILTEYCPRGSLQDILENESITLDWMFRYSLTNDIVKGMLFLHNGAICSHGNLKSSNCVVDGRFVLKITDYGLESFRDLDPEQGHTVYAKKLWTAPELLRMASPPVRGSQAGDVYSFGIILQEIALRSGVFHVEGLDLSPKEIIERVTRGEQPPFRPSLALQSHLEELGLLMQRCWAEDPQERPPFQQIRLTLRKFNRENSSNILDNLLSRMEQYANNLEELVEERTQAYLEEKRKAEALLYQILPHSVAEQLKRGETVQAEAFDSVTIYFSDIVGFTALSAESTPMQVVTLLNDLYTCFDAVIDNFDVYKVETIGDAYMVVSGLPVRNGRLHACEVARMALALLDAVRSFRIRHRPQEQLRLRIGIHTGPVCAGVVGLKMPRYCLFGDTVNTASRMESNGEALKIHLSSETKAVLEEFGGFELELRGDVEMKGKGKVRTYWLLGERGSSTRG
T1 sequence (peptide): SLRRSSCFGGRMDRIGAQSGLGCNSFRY
Protocol: (§1) All cells were washed once with 1×PBS with Ca²⁺/Mg²⁺ and counted with a Cellometer™ Auto T4 cell counter (Nexcelom Bioscience). Approximately 2.0×10⁴ HEK293/hNPR1.myc.DDK or HEK293 cells were seeded separately onto 96-well carbon electrode plates (MULTI-ARRAY high bind plate, Meso Scale Discovery (MSD, Rockville, MD)) and incubated for 1 hour (h) at 37° C. Nonspecific binding sites were blocked by 2% BSA (w/v) in 1×PBS with Ca²⁺/Mg²⁺for 1 h at room temperature (RT). HEK293/hNPR1.myc. […] The plate-bound antibodies were detected with SULFO-TAG™-conjugated goat polyclonal anti-human IgG antibody specific for heavy and light chains (Jackson Immunoresearch, West Grove, PA) for 1 h, RT.
(§2) After washes, plates were developed with Read Buffer (MSD, Rockville, MD) according to manufacturer's recommended procedure and luminescent signals were recorded with a SECTOR Imager 600 (MSD, Rockville, MD). Luminescence intensity, measured in relative light units (RLU), was recorded to indicate the binding intensity of each antibody at the range of concentrations.
(§3) In addition, direct binding signals (RLU) were analyzed as a function of the antibody concentration and data were fitted with a sigmoidal (four-parameter logistic) dose-response model using R statistical package (open source).

[2] = biological target: T2, human NPR1 on HEK293/hNPR1.myc.DDK cells (0 hANP) (human, UniProt P16066 33-1061); experiment: cell-based or functional assay
T2 sequence: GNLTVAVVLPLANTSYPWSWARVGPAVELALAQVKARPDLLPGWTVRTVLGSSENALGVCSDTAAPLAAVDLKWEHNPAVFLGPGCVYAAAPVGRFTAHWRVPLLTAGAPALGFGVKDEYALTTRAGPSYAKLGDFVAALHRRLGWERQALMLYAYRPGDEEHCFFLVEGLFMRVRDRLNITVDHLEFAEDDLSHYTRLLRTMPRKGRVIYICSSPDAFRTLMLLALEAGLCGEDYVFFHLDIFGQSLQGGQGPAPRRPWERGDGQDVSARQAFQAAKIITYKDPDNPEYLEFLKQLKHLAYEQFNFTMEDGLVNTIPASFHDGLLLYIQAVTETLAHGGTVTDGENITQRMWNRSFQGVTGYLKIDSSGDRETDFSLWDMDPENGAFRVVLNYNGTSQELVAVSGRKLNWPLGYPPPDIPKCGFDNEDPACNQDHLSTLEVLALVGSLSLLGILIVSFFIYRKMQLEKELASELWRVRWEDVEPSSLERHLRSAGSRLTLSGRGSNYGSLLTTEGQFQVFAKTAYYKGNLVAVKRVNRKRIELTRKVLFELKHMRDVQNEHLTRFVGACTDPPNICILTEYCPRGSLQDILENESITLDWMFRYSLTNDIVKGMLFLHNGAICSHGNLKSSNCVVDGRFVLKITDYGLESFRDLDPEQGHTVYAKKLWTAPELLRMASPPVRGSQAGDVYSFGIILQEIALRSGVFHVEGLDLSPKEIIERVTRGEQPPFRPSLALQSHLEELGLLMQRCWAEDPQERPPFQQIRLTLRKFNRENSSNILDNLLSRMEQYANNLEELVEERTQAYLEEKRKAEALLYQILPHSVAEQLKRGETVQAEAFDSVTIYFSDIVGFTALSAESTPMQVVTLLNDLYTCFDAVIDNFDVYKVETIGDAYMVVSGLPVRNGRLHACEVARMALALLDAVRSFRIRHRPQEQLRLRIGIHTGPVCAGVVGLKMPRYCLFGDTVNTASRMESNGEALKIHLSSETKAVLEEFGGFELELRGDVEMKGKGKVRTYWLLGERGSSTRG

mNPR1-mFc [3] = biological target: T3, mNPR1-mFc (mouse); experiment: SPR Biacore, mAb captured by anti-human Fc, 25C
T3 construct: also called mouse NPR1 extracellular domain expressed with a C-terminal mouse IgG2a
T3 chain: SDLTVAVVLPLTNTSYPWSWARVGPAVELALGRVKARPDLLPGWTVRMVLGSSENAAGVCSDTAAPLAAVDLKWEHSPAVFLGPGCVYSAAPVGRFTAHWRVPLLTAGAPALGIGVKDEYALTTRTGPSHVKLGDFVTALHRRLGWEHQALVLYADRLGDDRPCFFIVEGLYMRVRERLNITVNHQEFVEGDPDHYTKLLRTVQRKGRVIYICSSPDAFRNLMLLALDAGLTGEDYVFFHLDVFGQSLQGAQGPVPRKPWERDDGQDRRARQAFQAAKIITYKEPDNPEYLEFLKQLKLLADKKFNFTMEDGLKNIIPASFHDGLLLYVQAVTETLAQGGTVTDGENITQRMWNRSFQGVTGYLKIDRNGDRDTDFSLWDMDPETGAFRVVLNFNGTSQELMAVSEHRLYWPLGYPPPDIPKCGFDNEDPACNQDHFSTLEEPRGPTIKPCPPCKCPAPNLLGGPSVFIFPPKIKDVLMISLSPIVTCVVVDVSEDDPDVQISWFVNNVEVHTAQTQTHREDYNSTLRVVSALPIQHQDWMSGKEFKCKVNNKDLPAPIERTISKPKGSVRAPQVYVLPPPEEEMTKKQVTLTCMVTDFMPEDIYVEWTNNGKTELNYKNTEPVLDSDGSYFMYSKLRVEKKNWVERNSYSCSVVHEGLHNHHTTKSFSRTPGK
Protocol: (§4) Equilibrium dissociation constant (KD) for different NPR1 reagents binding to purified anti-NPR1 monoclonal antibodies (mAbs) were determined using a real-time surface plasmon resonance based Biacore 4000 biosensor. All binding studies were performed in 10 mM HEPES, 150 mM NaCl, 3 mM EDTA, and 0.05% v/v Surfactant Tween-20, pH 7.4 (HBS-ET) running buffer at 25° C. and 37° C. The Biacore CM5 sensor chip surface was first derivatized by amine coupling with either mouse anti-human Fc specific mAb (GE Healthcare, #BR100839) or goat anti-human Fcy specific polyclonal antibody (Jackson ImmunoResearch Laboratories, #BR-1008-39) to capture anti-NPR1 mAbs.

mNPR1-mFc [4] = biological target: T3, mNPR1-mFc; experiment: SPR Biacore, mAb captured by anti-human Fc, 37C
Protocol: as §4

mfNPR1-mFc:hBNP complex = biological target: T4, mfNPR1-mFc:hBNP complex (monkey; human, UniProt P16860 103-134); experiment: SPR Biacore, mAb captured by anti-human Fc, 37C
T4 construct: Receptor-Fc pre-complexed with 10-fold hBNP
Protocol: as §4

[5] = biological target: T2, human NPR1 on HEK293/hNPR1.myc.DDK …; experiment: ECL cell binding (MSD), 0 hANP
Protocol: as §1, §2, §3

B1: mAb25508 (antibody, human IgG4, V domains shown)
VH: EVQLVESGGGVVRPGGSLRLSCAASGFNVDDYGMSWVRQIPGKGLEWISGINWNGGRIYYADSMKGRITISRDNAKNSLYLQMNSLRAEDTALYHCVRDQWLVRGLDYWGQGTLVTVSS
VL: DIQMTQSPSSLSASVGDRVTITCRASQGIYNYLAWFQQKPGKAPKSLIYAASSLQSGVPSKFSGSGSGTDFTLTISSLQPEDFATYYCQQYNTYPYTFGQGTKLEIK
EC50 [1]: 1.3 nM | Ratio at 3.7 nM Ab concentration of Cell Binding Signal (RLU) to HEK293/hNPR1.myc.DKK relative to parental HEK293 [1]: 35 ratio | % Activation (vs ANP max), Expt 1 [2]: 56.1% | EC50 (nM), calcium flux, Expt 1 [2]: 326 nM | 100 nM Ag Bound (RU) (mNPR1-mFc [3]): -1 RU | 100 nM Ag Bound (RU) (mNPR1-mFc [4]): 0 RU | 100 nM Ag Bound (RU) (mfNPR1-mFc:hBNP complex): 266 RU | Kd (mfNPR1-mFc:hBNP complex): 0.354 nM | koff (mfNPR1-mFc:hBNP complex): 0.00015 s⁻¹ | kon (mfNPR1-mFc:hBNP complex): 423000 M⁻¹ s⁻¹ | t½ (mfNPR1-mFc:hBNP complex): 1.28 h | Ratio at 3.7 nM Ab concentration of Cell Binding Signal (RLU) to HEK293/hNPR1.myc.DKK relative to parental HEK293 [5]: 18 ratio
